Assay results: publication PMC2781058 (Proceedings of the National Academy of Sciences of the …, 2009)

T1: Med18 (S. cerevisiae, UniProt P32585 1-307)
T1 sequence (looked up): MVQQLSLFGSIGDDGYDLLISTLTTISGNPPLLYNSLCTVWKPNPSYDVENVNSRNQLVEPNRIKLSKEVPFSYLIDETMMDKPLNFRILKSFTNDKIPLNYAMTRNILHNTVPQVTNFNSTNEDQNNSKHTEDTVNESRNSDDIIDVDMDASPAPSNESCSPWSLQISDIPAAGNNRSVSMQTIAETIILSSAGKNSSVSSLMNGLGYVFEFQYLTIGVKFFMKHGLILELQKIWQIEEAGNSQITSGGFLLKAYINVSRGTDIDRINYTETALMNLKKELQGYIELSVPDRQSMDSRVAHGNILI


Molecular target: T1, Med18
Test: co-IP

| binding result | Binder |
| --- | --- |
| binds | Med20 (natural protein, S. cerevisiae, UniProt P34162 1-210, looked up) MGKSAVIFVERATPATLTELKDALSNSILSVRDPWSIDFRTYRCSIKNLPADVSKLMYSITFHHHGRQTVLIKDNSAMVTTAAAADIPPALVFNGSSTGVPESIDTILSSKLSNIWMQRQLIKGDAGETLILDGLTVRLVNLFSSTGFKGLLIELQADEAGEFETKIAGIEGHLAEIRAKEYKTSSDSLGPDTSNEICDLAYQYVRALEL |
| binds | Med8 (natural protein, S. cerevisiae, UniProt P38304 1-223, looked up) MSQSTASLVPEGNQGSLQEDVSFDFNGVPGQALDAVRMRLAQLTHSLRRIRDEMSKAELPQWYTLQSQLNVTLSQLVSVTSTLQHFQETLDSTVVYPLPKFPTTSHESLVTTLLRKKNIPEVDEWMKYVRETSGVTTALLKDEEIEKLLQQDREITNWARTTFRNEYGKHDFKNEESLSEEHASLLVRDSKPSKPFNVDDVLKFTFTGEKPIITGSTSTSSSN |
